The target in the test is IBV polymerase trimeric complex (Pol3): PA-His, PB1, PB2 (influenza B virus). Kind of test: SPR. The following applies: natural protein.

The Kd is a measure of binding affinity in units of concentration. In the case of chicken ANP32A, purified (GST cleaved), the dissociation constant Kd is 133 nM.

(Values after publication PMC7580981.)
